Source: patent publication US12059458B2, “Peptides and combination of peptides and scaffolds for use in immunotherapy against renal cell carcinoma (RCC) and other cancers” (Immatics Biotechnologies GmbH, priority 2015, dated 2024)

The substances below were run against HLA-A*02:01 (Homo sapiens, UniProt P04439, D140Y/D185E/D98H/E176V/E277Q/G131W/G231S/I119V/I121R/I166T/I218V/L300P/L318F/N151K/N90K/P208A/P217A/Q86G/Q94H/R138H/R169H/T345S) (assay: MHC binding assay (UV-ligand exchange, beta2m ELISA, peptide exchange yield)). Conditions: binding to HLA-A*02:01 ranged by peptide exchange yield, β2m ELISA.
Source text: Candidate peptides for T cell based therapies according to the present invention were further tested for their MHC binding capacity (affinity). The individual peptide-MHC complexes were produced by UV-ligand exchange, where a UV-sensitive peptide is cleaved upon UV-irradiation, and exchanged with the peptide of interest as analyzed. Only peptide candidates that can effectively bind and stabilize the peptide-receptive MHC molecules prevent dissociation of the MHC complexes. To determine the yield of the exchange reaction, an ELISA was performed based on the detection of the light chain (β2m) of stabilized MHC complexes. The assay was performed as generally described in Rodenko et al. (Rodenko et al., 2006).
96 well MAXISorp plates (NUNC) were coated over night with 2 ug/ml streptavidin in PBS at room temperature, washed 4× and blocked for 1 h at 37° C. in 2% BSA containing blocking buffer. Refolded HLA-A*02:01/MLA-001 monomers served as standards, covering the range of 15-500 ng/ml. Peptide-MHC monomers of the UV-exchange reaction were diluted 100 fold in blocking buffer. Samples were incubated for 1 h at 37° C., washed four times, incubated with 2 ug/ml HRP conjugated anti-β2m for 1h at 37° C., washed again and detected with TMB solution that is stopped with […]. Absorption was measured at 450 nm. Candidate peptides that show a high exchange yield (preferably higher than 50%, most preferred higher than 75%) are generally preferred for a generation and production of antibodies or fragments thereof, and/or T cell receptors or fragments thereof, as they show sufficient avidity to the MHC molecules and prevent dissociation of the MHC complexes.

| Substance | Peptide exchange (MHC class I binding score) |
| --- | --- |
| 90 (FTLEKNFVI; listed as Homo sapiens) [compound 90] | ++ (≥20% = ++) |
| 74 (GLFHKQVTV; listed as Homo sapiens) [compound 74] | +++ (≥50 = +++) |
| 84 (YLMDEGAHL; listed as Homo sapiens) [compound 84] | ++ (≥20% = ++) |
| 96 (TLAETLVNL; listed as Homo sapiens) [compound 96] | +++ (≥50 = +++) |
| 44 (ALFSFVTAL; listed as Homo sapiens) [compound 44] | +++ (≥50 = +++) |
| 92 (FLFRDILEL; listed as Homo sapiens) [compound 92] | +++ (≥50 = +++) |
| 53 (FLLEIRQTL; listed as Homo sapiens) [compound 53] | ++ (≥20% = ++) |
| 47 (TLAEVRAVQEI; listed as Homo sapiens) [compound 47] | +++ (≥50 = +++) |
| 89 (SLLLAVTEV; listed as Homo sapiens) [compound 89] | ++ (≥20% = ++) |
| 71 (ALDGHLYAV; listed as Homo sapiens) [compound 71] | +++ (≥50 = +++) |
| 101 (HIYDKAFITV; listed as Homo sapiens) [compound 101] | ++ (≥20% = ++) |
| 111 (TLLETEMLL; listed as Homo sapiens) [compound 111] | ++ (≥20% = ++) |
| 77 (SLIKHKIML; listed as Homo sapiens) [compound 77] | ++ (≥20% = ++) |
| 93 (GVMAGDIYSV; listed as Homo sapiens) [compound 93] | ++++ (≥75% = ++++) |
| 8 (GLASFKSFL; listed as Homo sapiens) [compound 8] | ++ (≥20% = ++) |
| 52 (SILDAVQRV; listed as Homo sapiens) [compound 52] | ++ (≥20% = ++) |
| 69 (ILADLLPSL; listed as Homo sapiens) [compound 69] | ++ (≥20% = ++) |
| 91 (MLLSSLVSL; listed as Homo sapiens) [compound 91] | ++ (≥20% = ++) |
| 59 (SLKNNVVSV; listed as Homo sapiens) [compound 59] | +++ (≥50 = +++) |
| 10 (KLLQNNYGL; listed as Homo sapiens) [compound 10] | ++ (≥20% = ++) |
| 4 (FLSQDIITV; listed as Homo sapiens) [compound 4] | +++ (≥50 = +++) |
| 27 (SLSDLLVSL; listed as Homo sapiens) [compound 27] | +++ (≥50 = +++) |
| 107 (VLMDLKALLL; listed as Homo sapiens) [compound 107] | +++ (≥50 = +++) |

| Substance | Peptide exchange (MHC class I binding score) |
| --- | --- |
| 28 (FIADLVVGL; listed as Homo sapiens) [compound 28] | ++ (≥20% = ++) |
| 67 (LLDVLAPLV; listed as Homo sapiens) [compound 67] | ++ (≥20% = ++) |
| 79 (ALADIVWRA; listed as Homo sapiens) [compound 79] | +++ (≥50 = +++) |
| 49 (VLIVEVPGV; listed as Homo sapiens) [compound 49] | +++ (≥50 = +++) |
| 38 (VLLDTILQL; listed as Homo sapiens) [compound 38] | +++ (≥50 = +++) |
| 61 (SLMGILLRI; listed as Homo sapiens) [compound 61] | ++ (≥20% = ++) |
| 97 (TLISELVQA; listed as Homo sapiens) [compound 97] | ++ (≥20% = ++) |
| 105 (ALADLDELLIRA; listed as Homo sapiens) [compound 105] | +++ (≥50 = +++) |
| 23 (YIQEVVQYI; listed as Homo sapiens) [compound 23] | +++ (≥50 = +++) |
| 35 (VLHSLQTQL; listed as Homo sapiens) [compound 35] | ++ (≥20% = ++) |
| 60 (ILWKDIEYV; listed as Homo sapiens) [compound 60] | +++ (≥50 = +++) |
| 68 (YVLTQPPSV; listed as Homo sapiens) [compound 68] | ++ (≥20% = ++) |
| 110 (LLDLHSYLL; listed as Homo sapiens) [compound 110] | ++ (≥20% = ++) |
| 112 (LLFDHLEPIEL; listed as Homo sapiens) [compound 112] | +++ (≥50 = +++) |
| 42 (VILDTGTIQL; listed as Homo sapiens) [compound 42] | ++ (≥20% = ++) |
| 45 (ALLGIPLTL; listed as Homo sapiens) [compound 45] | +++ (≥50 = +++) |
| 56 (ILMDFSNSM; listed as Homo sapiens) [compound 56] | +++ (≥50 = +++) |
| 108 (VLISVLQAI; listed as Homo sapiens) [compound 108] | ++ (≥20% = ++) |
| 64 (LLAASVALA; listed as Homo sapiens) [compound 64] | ++ (≥20% = ++) |
| 102 (LLFDVHTTL; listed as Homo sapiens) [compound 102] | +++ (≥50 = +++) |
| 80 (KLASMLETL; listed as Homo sapiens) [compound 80] | +++ (≥50 = +++) |
| 33 (FIADVVEKI; listed as Homo sapiens) [compound 33] | ++ (≥20% = ++) |
| 57 (SLQKEILYL; listed as Homo sapiens) [compound 57] | ++ (≥20% = ++) |

| Substance | Peptide exchange (MHC class I binding score) |
| --- | --- |
| 41 (GLLKTLQKL; listed as Homo sapiens) [compound 41] | ++ (≥20% = ++) |
| 51 (NLWPMILTL; listed as Homo sapiens) [compound 51] | +++ (≥50 = +++) |
| 100 (KLNVAPLAV; listed as Homo sapiens) [compound 100] | ++ (≥20% = ++) |
| 55 (YLALILPVL; listed as Homo sapiens) [compound 55] | ++ (≥20% = ++) |
| 21 (RLIQGDQILSV; listed as Homo sapiens) [compound 21] | ++ (≥20% = ++) |
| 40 (YIQEHLLQI; listed as Homo sapiens) [compound 40] | +++ (≥50 = +++) |
| 50 (SLSDHIVLL; listed as Homo sapiens) [compound 50] | ++ (≥20% = ++) |
| 46 (GLSEVLVQI; listed as Homo sapiens) [compound 46] | +++ (≥50 = +++) |
| 5 (YLYPNLTRL; listed as Homo sapiens) [compound 5] | ++ (≥20% = ++) |
| 65 (IIYGGSVTGA; listed as Homo sapiens) [compound 65] | ++ (≥20% = ++) |
| 76 (VLADDHLIEV; listed as Homo sapiens) [compound 76] | ++ (≥20% = ++) |
| 13 (KIMAQILTV; listed as Homo sapiens) [compound 13] | +++ (≥50 = +++) |
| 48 (VVASNIMEV; listed as Homo sapiens) [compound 48] | ++ (≥20% = ++) |
| 75 (FLIKSINLV; listed as Homo sapiens) [compound 75] | +++ (≥50 = +++) |
| 103 (KLQDGLLHI; listed as Homo sapiens) [compound 103] | ++ (≥20% = ++) |
| 62 (VLAGPAFLVQL; listed as Homo sapiens) [compound 62] | +++ (≥50 = +++) |
| 31 (VLFGLDPAVIKV; listed as Homo sapiens) [compound 31] | +++ (≥50 = +++) |
| 24 (FTLGTTVFL; listed as Homo sapiens) [compound 24] | +++ (≥50 = +++) |
| 85 (FVMSEIRTV; listed as Homo sapiens) [compound 85] | +++ (≥50 = +++) |
| 54 (ALVAKGLVQA; listed as Homo sapiens) [compound 54] | ++ (≥20% = ++) |
| 19 (LLDPGSLQL; listed as Homo sapiens) [compound 19] | ++ (≥20% = ++) |
| 70 (SLTALRLLL; listed as Homo sapiens) [compound 70] | ++ (≥20% = ++) |
